Test results taken from the supplement of paper PMC9732359.
± gives the uncertainty stated by the source.

Assay: protein stability index of a GFP-peptide fusion (yeast GPS) (PSI 1-4); higher = more stable; sorted into four equal gates, so the index is relative within each strain
Procedure, shortened: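 Sequencing reads from sorted gates were used to score each peptide. The library consisted of tiled 17-residue yeast protein peptides fused downstream of GFP on a Cherry-expressing plasmid, pooled and carried in yeast. Mid-log cultures in leucine-free medium were split into four equal gates by GFP/Cherry ratio, and each gate's plasmids were PCR-amplified and Illumina-sequenced. The protein stability index adds up, over all gates, the read frequency multiplied by the gate number.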

FVSSLSNTSTLKNMLYV [BRR2]
protein stability index (doa10∆): 1.88 ± 0.058
protein stability index (pdr5∆): 2.08 ± 0.049
protein stability index (san1∆): 1.85 ± 0.064
protein stability index (ubr1∆): 2.18 ± 0.036

LKSPVLSKLCVPVANQF [QCR7]
protein stability index (doa10∆): 2.22 ± 0.053
protein stability index (pdr5∆): 2.45 ± 0.065
protein stability index (san1∆): 1.92 ± 0.053
protein stability index (ubr1∆): 2.01 ± 0.031

KSLESQRYVKSVKSVKF [RPC34]
protein stability index (doa10∆): 1.26 ± 0.081
protein stability index (pdr5∆): 1.61 ± 0.058
protein stability index (san1∆): 2.16 ± 0.098
protein stability index (ubr1∆): 1.55 ± 0.084

KNTSSMDFLNSMENTPK [GAL11]
protein stability index (doa10∆): 1.83 ± 0.059
protein stability index (pdr5∆): 1.67 ± 0.06
protein stability index (san1∆): 2.33 ± 0.12
protein stability index (ubr1∆): 3.02 ± 0.047

FPKTTVAALRFTAGARA [RPL18A]
protein stability index (doa10∆): 1.58 ± 0.15
protein stability index (pdr5∆): 1.47 ± 0.085
protein stability index (ubr1∆): 1.5 ± 0.12

GTFKSTLDREYITLKAT [QCR2]
protein stability index (doa10∆): 1.39 ± 0.065
protein stability index (pdr5∆): 1.44 ± 0.044
protein stability index (san1∆): 1.51 ± 0.099
protein stability index (ubr1∆): 1.49 ± 0.047

LSFGTATSDNKTTNTTP [YJL041W/NSP1]
protein stability index (doa10∆): 2.21 ± 0.088
protein stability index (pdr5∆): 3.05 ± 0.083
protein stability index (san1∆): 2.24 ± 0.1
protein stability index (ubr1∆): 2.15 ± 0.094

LRLSNFFTIDHFIQKLH [SIR2]
protein stability index (doa10∆): 2.32 ± 0.085
protein stability index (pdr5∆): 2.2 ± 0.07
protein stability index (san1∆): 2.23 ± 0.074
protein stability index (ubr1∆): 2.05 ± 0.068

LSAEYLVILKPDLNIDR [SIN4]
protein stability index (doa10∆): 2.97 ± 0.063
protein stability index (pdr5∆): 3.1 ± 0.1
protein stability index (san1∆): 2.97 ± 0.058
protein stability index (ubr1∆): 2.94 ± 0.045

FGQRAVLKFAAHTGATP [RPS0A]
protein stability index (doa10∆): 2.18 ± 0.082
protein stability index (pdr5∆): 2.56 ± 0.07
protein stability index (san1∆): 2.45 ± 0.11
protein stability index (ubr1∆): 2.61 ± 0.067

KLSCIQLNCIDTQFTKL [SRB8]
protein stability index (doa10∆): 2.09 ± 0.046
protein stability index (pdr5∆): 1.92 ± 0.062
protein stability index (san1∆): 2.31 ± 0.091
protein stability index (ubr1∆): 2.61 ± 0.045

DLISKKTKTSLLPTIKR [RPR2]
protein stability index (doa10∆): 3.09 ± 0.079
protein stability index (pdr5∆): 2.58 ± 0.073
protein stability index (san1∆): 2.58 ± 0.086
protein stability index (ubr1∆): 2.74 ± 0.063

EEDDEGELEQAQAWINL [RPN7]
protein stability index (doa10∆): 3.58 ± 0.28
protein stability index (pdr5∆): 3.23 ± 0.11
protein stability index (san1∆): 3.43 ± 0.11
protein stability index (ubr1∆): 3.26 ± 0.058

AIDYEPEYEKAMQYVCG [SMC1]
protein stability index (san1∆): 2.8 ± 0.13
protein stability index (ubr1∆): 2.44 ± 0.11

NSIYCPTQTVAELDLMS [RPN6]
protein stability index (doa10∆): 2.55 ± 0.071
protein stability index (pdr5∆): 1.72 ± 0.071
protein stability index (san1∆): 1.39 ± 0.11
protein stability index (ubr1∆): 1.53 ± 0.074

CSNESFASIPVSNSISR [SNU114]
protein stability index (doa10∆): 2.55 ± 0.069
protein stability index (pdr5∆): 2.67 ± 0.057
protein stability index (san1∆): 2.46 ± 0.078
protein stability index (ubr1∆): 2.7 ± 0.062

LNKEKLGPLFKKIVDDT [IRR1]
protein stability index (doa10∆): 2.94 ± 0.099
protein stability index (pdr5∆): 3.12 ± 0.12
protein stability index (san1∆): 3.22 ± 0.23
protein stability index (ubr1∆): 2.94 ± 0.076

PLVGKPKTELTKGDSTP [YAR002W/NUP60]
protein stability index (doa10∆): 2.59 ± 0.061
protein stability index (pdr5∆): 2.9 ± 0.058
protein stability index (san1∆): 2.46 ± 0.086
protein stability index (ubr1∆): 2.83 ± 0.11

PYDSNNSNTNLNSLSPQ [SWI1]
protein stability index (doa10∆): 2.96 ± 0.049
protein stability index (pdr5∆): 2.87 ± 0.051
protein stability index (san1∆): 2.76 ± 0.054
protein stability index (ubr1∆): 2.79 ± 0.04

PMEVMGLMLGEFVDDYT [RPN11]
protein stability index (doa10∆): 3.29 ± 0.12
protein stability index (pdr5∆): 3.28 ± 0.095
protein stability index (san1∆): 3.12 ± 0.14
protein stability index (ubr1∆): 3.08 ± 0.074

LDPLEMEGNAQPVNFNR [RPO31]
protein stability index (doa10∆): 3.37 ± 0.09
protein stability index (pdr5∆): 3.29 ± 0.081
protein stability index (san1∆): 2.93 ± 0.1
protein stability index (ubr1∆): 2.97 ± 0.1

NIDTITDAMTESQPKQT [MCD1]
protein stability index (doa10∆): 2.71 ± 0.14
protein stability index (pdr5∆): 3.02 ± 0.11
protein stability index (san1∆): 3 ± 0.076
protein stability index (ubr1∆): 3.32 ± 0.087

KSNGSSDDDNIGQSEEL [ISW2]
protein stability index (doa10∆): 3.3 ± 0.1
protein stability index (pdr5∆): 3.44 ± 0.09
protein stability index (san1∆): 3.31 ± 0.08
protein stability index (ubr1∆): 3.42 ± 0.12

IQRTLMELLTQMDGFDN [RPT4]
protein stability index (doa10∆): 2.84 ± 0.12
protein stability index (pdr5∆): 3.22 ± 0.079
protein stability index (san1∆): 3.28 ± 0.15
protein stability index (ubr1∆): 3.23 ± 0.1

VTDNKTPEMNVTNNVEE [TAF14]
protein stability index (doa10∆): 3.28 ± 0.17
protein stability index (pdr5∆): 3.27 ± 0.12
protein stability index (san1∆): 3.35 ± 0.13
protein stability index (ubr1∆): 3.2 ± 0.17

MKYTQYPNSSKLKRNSD [LIN1]
protein stability index (doa10∆): 3.17 ± 0.089
protein stability index (pdr5∆): 3.03 ± 0.079
protein stability index (san1∆): 2.99 ± 0.05
protein stability index (ubr1∆): 3.14 ± 0.094

FIENFLTNDTFEKKLSI [YML103C/NUP188]
protein stability index (doa10∆): 3.18 ± 0.22
protein stability index (pdr5∆): 3.12 ± 0.12
protein stability index (san1∆): 3.2 ± 0.18
protein stability index (ubr1∆): 3 ± 0.093

LIEILRLRALQLYFQKN [RRI2]
protein stability index (doa10∆): 1.17 ± 0.049
protein stability index (pdr5∆): 1.28 ± 0.072
protein stability index (san1∆): 1.26 ± 0.12
protein stability index (ubr1∆): 1.04 ± 0.076

YGKVYKAKRQINSGTNS [SSN3]
protein stability index (doa10∆): 2.23 ± 0.066
protein stability index (pdr5∆): 2.04 ± 0.058
protein stability index (san1∆): 2.49 ± 0.094
protein stability index (ubr1∆): 2.68 ± 0.053

KGKARLGTLVNQKTSAV [RPL8A]
protein stability index (doa10∆): 2.65 ± 0.078
protein stability index (pdr5∆): 2.38 ± 0.076
protein stability index (san1∆): 3.15 ± 0.083
protein stability index (ubr1∆): 2.94 ± 0.057

VCGIIVKQEDMPFNDQG [RET1]
protein stability index (doa10∆): 3.06 ± 0.16
protein stability index (pdr5∆): 2.87 ± 0.24
protein stability index (san1∆): 2.46 ± 0.26
protein stability index (ubr1∆): 2.49 ± 0.21

IKVPTYIRKLISSGLLY [SRB8]
protein stability index (doa10∆): 1.38 ± 0.048
protein stability index (pdr5∆): 1.27 ± 0.07
protein stability index (san1∆): 1.38 ± 0.085
protein stability index (ubr1∆): 1.2 ± 0.067

EGHDWKAPTKLDDPEAV [DIS3]
protein stability index (doa10∆): 3.31 ± 0.057
protein stability index (pdr5∆): 3.28 ± 0.054
protein stability index (san1∆): 3.23 ± 0.041
protein stability index (ubr1∆): 3.25 ± 0.046

EKDASGKPSFVFGASDK [YOR098C/NUP1]
protein stability index (doa10∆): 2.63 ± 0.067
protein stability index (pdr5∆): 2.52 ± 0.065
protein stability index (san1∆): 2.98 ± 0.076
protein stability index (ubr1∆): 2.37 ± 0.074

FQHILRLLNTNVDGNIK [RPS18A]
protein stability index (doa10∆): 2.87 ± 0.05
protein stability index (pdr5∆): 2.95 ± 0.064
protein stability index (san1∆): 2.83 ± 0.045
protein stability index (ubr1∆): 2.59 ± 0.043

NILWRIADKTTYDKETI [SIR4]
protein stability index (doa10∆): 3.2 ± 0.12
protein stability index (pdr5∆): 3.16 ± 0.084
protein stability index (san1∆): 2.98 ± 0.1
protein stability index (ubr1∆): 3.17 ± 0.052

VAQLKPFFKYIDDANVT [RPC37]
protein stability index (doa10∆): 2.81 ± 0.078
protein stability index (pdr5∆): 2.9 ± 0.07
protein stability index (san1∆): 2.9 ± 0.062
protein stability index (ubr1∆): 2.8 ± 0.07

DKINKYSLIRETNGYDP [SNF5]
protein stability index (doa10∆): 1.51 ± 0.086
protein stability index (pdr5∆): 1.62 ± 0.12
protein stability index (san1∆): 1.92 ± 0.2
protein stability index (ubr1∆): 1.23 ± 0.19

LSRPSLPKIKTVRKSIA [RPL35A]
protein stability index (doa10∆): 1.54 ± 0.06
protein stability index (pdr5∆): 1.94 ± 0.073
protein stability index (san1∆): 2.31 ± 0.059
protein stability index (ubr1∆): 1.85 ± 0.054

FYRGNYTDFENTFQKTV [FAS1]
protein stability index (doa10∆): 2.41 ± 0.074
protein stability index (pdr5∆): 2.63 ± 0.062
protein stability index (san1∆): 2.34 ± 0.1
protein stability index (ubr1∆): 2.67 ± 0.056

MFDAFVSFYFEDGTIES [SIN4]
protein stability index (doa10∆): 2.33 ± 0.078
protein stability index (pdr5∆): 2.76 ± 0.062
protein stability index (san1∆): 2.52 ± 0.059
protein stability index (ubr1∆): 3.07 ± 0.062

NINAKMETRINILLRER [YIL149C/MLP2]
protein stability index (doa10∆): 2.98 ± 0.18
protein stability index (pdr5∆): 3.35 ± 0.12
protein stability index (san1∆): 2.61 ± 0.12
protein stability index (ubr1∆): 3.15 ± 0.1

NTLVRPNGTKKAYVRLT [RPL25]
protein stability index (san1∆): 3.03 ± 0.17
protein stability index (ubr1∆): 3.35 ± 0.15

DSVAAIGIPVNKASLAQ [QCR2]
protein stability index (doa10∆): 2.63 ± 0.056
protein stability index (pdr5∆): 2.61 ± 0.052
protein stability index (san1∆): 2.52 ± 0.081
protein stability index (ubr1∆): 2.82 ± 0.042

KDVLAQTSVTTNFNEIT [SWP82]
protein stability index (doa10∆): 2.3 ± 0.079
protein stability index (pdr5∆): 2.75 ± 0.06
protein stability index (san1∆): 2.7 ± 0.071
protein stability index (ubr1∆): 2.76 ± 0.045

KKWNDLKNKNFKCQEKD [SIR2]
protein stability index (doa10∆): 3.46 ± 0.23
protein stability index (pdr5∆): 3.34 ± 0.14
protein stability index (san1∆): 3.37 ± 0.072
protein stability index (ubr1∆): 3.11 ± 0.12

VTWRTFTGDFLRRVEER [FAS1]
protein stability index (doa10∆): 2.79 ± 0.12
protein stability index (pdr5∆): 1.78 ± 0.096
protein stability index (san1∆): 1.96 ± 0.12
protein stability index (ubr1∆): 1.24 ± 0.15

KGSRQCRVCSSHTGLVR [RPS29B]
protein stability index (doa10∆): 2.67 ± 0.065
protein stability index (pdr5∆): 2.79 ± 0.051
protein stability index (san1∆): 2.66 ± 0.056
protein stability index (ubr1∆): 2.61 ± 0.03

KPSSPPDVKSLVQLSTM [SIR4]
protein stability index (doa10∆): 3.41 ± 0.11
protein stability index (pdr5∆): 3.26 ± 0.07
protein stability index (san1∆): 3.12 ± 0.088
protein stability index (ubr1∆): 3.26 ± 0.06

KKSKKKWSKKSMKDRAQ [RPS25A]
protein stability index (doa10∆): 3.46 ± 0.069
protein stability index (pdr5∆): 3.37 ± 0.1
protein stability index (san1∆): 3.36 ± 0.087
protein stability index (ubr1∆): 3.6 ± 0.051

QAQAQAHAQHQPSQQPQ [GAL11]
protein stability index (doa10∆): 2.967 ± 0.022
protein stability index (pdr5∆): 2.972 ± 0.019
protein stability index (san1∆): 2.974 ± 0.022
protein stability index (ubr1∆): 3.028 ± 0.018

MLGHYLGEFSITYTPVR [RPS15]
protein stability index (doa10∆): 2.27 ± 0.19
protein stability index (pdr5∆): 2.83 ± 0.073
protein stability index (san1∆): 2.04 ± 0.16
protein stability index (ubr1∆): 2.86 ± 0.18
